The results in this text go back to the RNAGym collection of RNA variant scans (doi:10.1101/gr.219683.116).

First the molecules themselves.
B1: mRNA-splicing (parent)
chain: AGUUGCUGCUGGGAGCUCCAGCACAGUGAAAUGGACAGAAGGGCAGAGCAA

Variants of B1 are the subject of the series. Description: exon inclusion enrichment index; higher = more inclusion; WT1 exon 5 minigene, HEK293.
Take AGUUCGAGCCGGGAGCUCCAGCACAGUGAAAUGGACAGAAGGGCAGAGCAA [G5C C6G U7A U10C]: the “exon inclusion enrichment index” value worked out at 2.53.

For the variant AGUUCGCGCCGGGAGCUCCUCCACAGUGAAAUGGACAGAAGGGCAGAGCAA [G5C C6G U7C U10C A20U G21C], the “exon inclusion enrichment index” value worked out at 2.93.

Consider AGUUCGCGCCGGGAGCUCCUUCACAGUGAAAUGGACAGAAGGGCAGAGCAA [G5C C6G U7C U10C A20U G21U], for which the “exon inclusion enrichment index” value turned out to be 2.35.

On to AGUUCGCGCCGGGAGCUCCUACACAGUGAAAUGGACAGAAGGGCAGAGCAA [G5C C6G U7C U10C A20U G21A], for which the “exon inclusion enrichment index” value is 2.15.

Take AGUUCGCCGCGGGAGCUCCAGCACAGUGAAAUGGACAGAAGGGCAGAGCAA [G5C C6G U7C G8C C9G U10C]: the “exon inclusion enrichment index” value was found to be 3.59.

Consider AGUUCGCGCUAGGAGCUCCAGCACAGUGAAAUGGACAGAAGGGCAGAGCAA [G5C C6G U7C G11A], for which the “exon inclusion enrichment index” value came out at 0.993.

For AGUUCGCGCUCGGAGCUCCAGCACAGUGAAAUGGACAGAAGGGCAGAGCAA [G5C C6G U7C G11C], the “exon inclusion enrichment index” value came to 2.28.

In the case of AGUUCGCGCUUGGAGCUCCAGCACAGUGAAAUGGACAGAAGGGCAGAGCAA [G5C C6G U7C G11U], the “exon inclusion enrichment index” value is 2.67.

For AGUUCGCGCCGGGAGCUCCAGCACUGUGAAAUGGACAGAAGGGCAGAGCAA [G5C C6G U7C U10C A25U], the “exon inclusion enrichment index” value was 3.84.

AGUUCGCGCCGGGAGCUCCAGCACGGUGAAAUGGACAGAAGGGCAGAGCAA [G5C C6G U7C U10C A25G]: the “exon inclusion enrichment index” value worked out at 5.05.

Consider AGUUCGCGCCGGGAGCUCCAGCACCGUGAAAUGGACAGAAGGGCAGAGCAA [G5C C6G U7C U10C A25C], for which the “exon inclusion enrichment index” value came out at 4.98.

Turning to AGUUCGCGCCGGGAGCUCCAGCCCAGUGAAAUGGACAGAAGGGCAGAGCAA [G5C C6G U7C U10C A23C], the “exon inclusion enrichment index” value came out at 2.88.

For AGUUCGCGCCGGGAGCUCCAGCGCAGUGAAAUGGACAGAAGGGCAGAGCAA [G5C C6G U7C U10C A23G], the “exon inclusion enrichment index” value stood at 3.57.

On to AGUUCGCGCCGGGAGCUCCAGCUCAGUGAAAUGGACAGAAGGGCAGAGCAA [G5C C6G U7C U10C A23U], for which the “exon inclusion enrichment index” value was determined as 2.51.

AGUUCGCGCCGGGAGCUCCAGCACAGUGACAUGGACAGAAGGGCAGAGCAA [G5C C6G U7C U10C A30C]: the “exon inclusion enrichment index” value came out at 3.57.

Regarding AGUUCGCGCCGGGAGCUCCAGCACAGUGACCUGGACAGAAGGGCAGAGCAA [G5C C6G U7C U10C A30C A31C], the “exon inclusion enrichment index” value is 3.86.

As to AGUUCGCGUAGGGAGCUCCAGCACAGUGAAAUGGACAGAAGGGCAGAGCAA [G5C C6G U7C C9U U10A], the “exon inclusion enrichment index” value was found to be 0.144.

AGUUCGCGUGGGGAGCUCCAGCACAGUGAAAUGGACAGAAGGGCAGAGCAA [G5C C6G U7C C9U U10G]: the “exon inclusion enrichment index” value was determined as 1.02.

As to AGUUCGCGUCGGGAGCUCCAGCACAGUGAAAUGGACAGAAGGGCAGAGCAA [G5C C6G U7C C9U U10C], the “exon inclusion enrichment index” value came to 3.88.

Turning to AGUUCGCGCCGGGAGCUCCAGCACUAUGAAAUGGACAGAAGGGCAGAGCAA [G5C C6G U7C U10C A25U G26A], the “exon inclusion enrichment index” value came out at 3.89.

Regarding AGUUCGCGCCGGGAGCUCCAGCACUUUGAAAUGGACAGAAGGGCAGAGCAA [G5C C6G U7C U10C A25U G26U], the “exon inclusion enrichment index” value is 3.03.

As for AGUUCGCGCCGGGAGCUCCAGCACUCUGAAAUGGACAGAAGGGCAGAGCAA [G5C C6G U7C U10C A25U G26C], the “exon inclusion enrichment index” value is 3.41.

On to AGUUCGCGCCGGGAGCUCCGUCACAGUGAAAUGGACAGAAGGGCAGAGCAA [G5C C6G U7C U10C A20G G21U], for which the “exon inclusion enrichment index” value worked out at 2.65.

With AGUUCGCGCCGGGAGCUCCGACACAGUGAAAUGGACAGAAGGGCAGAGCAA [G5C C6G U7C U10C A20G G21A], the “exon inclusion enrichment index” value stood at 3.62.

Turning to AGUUCGCGCCGGGAGCUCCGCCACAGUGAAAUGGACAGAAGGGCAGAGCAA [G5C C6G U7C U10C A20G G21C], the “exon inclusion enrichment index” value was found to be 2.95.

For AGUUCGAUAUGGGAGCUCCAGCACAGUGAAAUGGACAGAAGGGCAGAGCAA [G5C C6G U7A G8U C9A], the “exon inclusion enrichment index” value stood at 1.06.

Take AGUUCGCGCCGGGAGCUCCAGCACAGUGGCAUGGACAGAAGGGCAGAGCAA [G5C C6G U7C U10C A29G A30C]: the “exon inclusion enrichment index” value is 2.29.

As to AGUUCGCGCCGGGAGCUCCAGCACAGUGGUAUGGACAGAAGGGCAGAGCAA [G5C C6G U7C U10C A29G A30U], the “exon inclusion enrichment index” value stood at 1.79.

With AGUUCGCGCCGGGAGCUCCAGCACAGUGGGAUGGACAGAAGGGCAGAGCAA [G5C C6G U7C U10C A29G A30G], the “exon inclusion enrichment index” value turned out to be 3.01.

Take AGUUCGCCCCGGGAGCUCCAGCACAGUGAAAUGGACAGAAGGGCAGAGCAA [G5C C6G U7C G8C U10C]: the “exon inclusion enrichment index” value was found to be 2.87.

As for AGUUCGAUCCGGGAGCUCCAGCACAGUGAAAUGGACAGAAGGGCAGAGCAA [G5C C6G U7A G8U U10C], the “exon inclusion enrichment index” value is 2.93.

For the variant AGUUCGACUCGGGAGCUCCAGCACAGUGAAAUGGACAGAAGGGCAGAGCAA [G5C C6G U7A G8C C9U U10C], the “exon inclusion enrichment index” value amounted to 3.05.

Consider AGUUCGCGCCGGGAGCUCCAGCACAGUGUUAUGGACAGAAGGGCAGAGCAA [G5C C6G U7C U10C A29U A30U], for which the “exon inclusion enrichment index” value was found to be 1.81.

Take AGUUCGCGCCGGGAGCUCCAGCACAGUGUGAUGGACAGAAGGGCAGAGCAA [G5C C6G U7C U10C A29U A30G]: the “exon inclusion enrichment index” value stood at 3.83.

With AGUUCGCGCCGGGAGCUCCAGCACAGUGUCAUGGACAGAAGGGCAGAGCAA [G5C C6G U7C U10C A29U A30C], the “exon inclusion enrichment index” value amounted to 3.05.

Turning to AGUUCGCCACGGGAGCUCCAGCACAGUGAAAUGGACAGAAGGGCAGAGCAA [G5C C6G U7C G8C C9A U10C], the “exon inclusion enrichment index” value is 3.14.

For AGUUCGCUCCGGGAGCUCCAGCACAGUGAAAUGGACAGAAGGGCAGAGCAA [G5C C6G U7C G8U U10C], the “exon inclusion enrichment index” value was 2.76.

With AGUUCGCGCCGGGAGCUCCCUCACAGUGAAAUGGACAGAAGGGCAGAGCAA [G5C C6G U7C U10C A20C G21U], the “exon inclusion enrichment index” value amounted to 2.17.

In the case of AGUUCGCGCCGGGAGCUCCCACACAGUGAAAUGGACAGAAGGGCAGAGCAA [G5C C6G U7C U10C A20C G21A], the “exon inclusion enrichment index” value worked out at 1.97.

Regarding AGUUCGCGCCGGGAGCUCCCCCACAGUGAAAUGGACAGAAGGGCAGAGCAA [G5C C6G U7C U10C A20C G21C], the “exon inclusion enrichment index” value came to 2.03.

Take AGUUCGCAUCGGGAGCUCCAGCACAGUGAAAUGGACAGAAGGGCAGAGCAA [G5C C6G U7C G8A C9U U10C]: the “exon inclusion enrichment index” value worked out at 3.11.

As to AGUUCGCGCCGGGCCCUCCAGCACAGUGAAAUGGACAGAAGGGCAGAGCAA [G5C C6G U7C U10C A14C G15C], the “exon inclusion enrichment index” value is 1.16.

For the variant AGUUCGCGCCGGGCACUCCAGCACAGUGAAAUGGACAGAAGGGCAGAGCAA [G5C C6G U7C U10C A14C G15A], the “exon inclusion enrichment index” value is 1.07.

Turning to AGUUCGCGCCGGGCUCUCCAGCACAGUGAAAUGGACAGAAGGGCAGAGCAA [G5C C6G U7C U10C A14C G15U], the “exon inclusion enrichment index” value amounted to 1.33.

With AGUUCGCUUCGGGAGCUCCAGCACAGUGAAAUGGACAGAAGGGCAGAGCAA [G5C C6G U7C G8U C9U U10C], the “exon inclusion enrichment index” value worked out at 2.82.

AGUUCGCGAUGGGAGCUCCAGCACAGUGAAAUGGACAGAAGGGCAGAGCAA [G5C C6G U7C C9A]: the “exon inclusion enrichment index” value was determined as 2.73.

In the case of AGUUCGCGUUGGGAGCUCCAGCACAGUGAAAUGGACAGAAGGGCAGAGCAA [G5C C6G U7C C9U], the “exon inclusion enrichment index” value worked out at 2.47.

Regarding AGUUCGCGGUGGGAGCUCCAGCACAGUGAAAUGGACAGAAGGGCAGAGCAA [G5C C6G U7C C9G], the “exon inclusion enrichment index” value was determined as 1.96.

AGUUCGACCCGGGAGCUCCAGCACAGUGAAAUGGACAGAAGGGCAGAGCAA [G5C C6G U7A G8C U10C]: the “exon inclusion enrichment index” value is 2.57.

As for AGUUCGCGCUGGGAGCUCCAGCACAGUGAAAUGGACAGAAGGGCAGAGCAA [G5C C6G U7C], the “exon inclusion enrichment index” value is 0.636.

With AGUUCGCGCCGGGAGCUCCAGCACAGUGCAAUGGACAGAAGGGCAGAGCAA [G5C C6G U7C U10C A29C], the “exon inclusion enrichment index” value turned out to be 3.11.
